Results published in article PMC8978259, “Structural and biochemical insights into lipid transport by VPS13 proteins” (The Journal of Cell Biology, 2022).
Each block holds one molecule with its values, some of them ahead of it.

What was measured:
[1] = target: PxP(Mcp1ct)-VABct(1,944-2,635)-His6 (C. thermophilum); experiment: SEC; Superdex 200 gel filtration in buffer A (20 mM Hepes pH 7.8, 500 mM NaCl, 1 mM TCEP, 10% glycerol); monomer or dimer read from the elution profile
[2] = target: PxP(Mcp1ct)-VABct(1,944-2,635)-His6 (C. thermophilum); experiment: negative stain EM; class averages of purified constructs; monomer or dimer
[3] = target: the molecule itself; experiment: SEC; Superdex 200 gel filtration in buffer A (20 mM Hepes pH 7.8, 500 mM NaCl, 1 mM TCEP, 10% glycerol); monomer or dimer read from the elution profile

stoichiometry N [1]: 2 | stoichiometry N [2]: 2
Molecule: PxP(Mcp1ct)-VABct(1,944-2,635)-His6

B1: PxP(Ypt35sc)-VABsc(1,869-2,545)-His6 (other, S. cerevisiae, UniProt P38815 2-22, looked up)
chain: SDKISFLPPEPIQLLDEDSTEKPYQLVNDTELDFDVWIQDKTTEDNKNEVVLLKANTSLPWEFEDWRSIREKLDIDKSKNILGVCVSGQNYKTIMNIDATTEGENLHVLSPPRNNVHNRIVCEARCDENNVKIITFRSTLVIENTTSTEIELLVDSKDPNKPSLKYAIKPHQSKSVPVEYAYDSDIRIRPASEDIYDWSQQTLSWKSLLSNQMSIFCSSKEDSNQRFHFEIGAKYDEREPLAKIFPHMKIVVSASMTIENLLPADINFSIFDKREEKRTDFLKTGESMEVHHISLDSFLLMSVQPLQDEASASKPSIVNTPHKSPLNPEDSLSLTLSGGQNLLLKLDYKNIDGTRSKVIRIYSPYIIMNSTDRELYIQSSLLNIAQSKILLENEKRYTIPKMFSFDKEDDKSNRARIRFKESEWSSKLSFDAIGQSFDASVRIKNKEQESNLGINISEGKGKYLLSKVIEIAPRYIISNTLDIPIEVCETGSMDVQQIESNITKPLYRMRNIVDKQLVLKFLGGDSNWSQPFFIKNVGVTYLKVLKNSRHKLLKIEILLDKATIFIRIKDGGDRWPFSIRNFSDHDFIFYQRDPRKVSDPYKDDQSNESSSRSFKPIFYRIPSKSIMPYAWDFPTAKEKYLVLESGTRTREVRLAEIGELPPLRLDKRSKDKPAPIVGLHVVADDDMQALVIVNYKAN
notes: Ypt35p of S. cerevisiae, Pro-X-Pro motif, residues 2-22; also called PXP-VABsc; source: E. coli BL21 (DE3), purified (Ni-NTA, Superdex 200)
stoichiometry N [3]: 2

B2: PxP(Mcp1sc)-VABsc(1,869-2,545)-His6 (other, S. cerevisiae, UniProt Q12106 2-20, looked up)
chain: IKLHEVPPEPVDPASLPHDKPYQLVNDTELDFDVWIQDKTTEDNKNEVVLLKANTSLPWEFEDWRSIREKLDIDKSKNILGVCVSGQNYKTIMNIDATTEGENLHVLSPPRNNVHNRIVCEARCDENNVKIITFRSTLVIENTTSTEIELLVDSKDPNKPSLKYAIKPHQSKSVPVEYAYDSDIRIRPASEDIYDWSQQTLSWKSLLSNQMSIFCSSKEDSNQRFHFEIGAKYDEREPLAKIFPHMKIVVSASMTIENLLPADINFSIFDKREEKRTDFLKTGESMEVHHISLDSFLLMSVQPLQDEASASKPSIVNTPHKSPLNPEDSLSLTLSGGQNLLLKLDYKNIDGTRSKVIRIYSPYIIMNSTDRELYIQSSLLNIAQSKILLENEKRYTIPKMFSFDKEDDKSNRARIRFKESEWSSKLSFDAIGQSFDASVRIKNKEQESNLGINISEGKGKYLLSKVIEIAPRYIISNTLDIPIEVCETGSMDVQQIESNITKPLYRMRNIVDKQLVLKFLGGDSNWSQPFFIKNVGVTYLKVLKNSRHKLLKIEILLDKATIFIRIKDGGDRWPFSIRNFSDHDFIFYQRDPRKVSDPYKDDQSNESSSRSFKPIFYRIPSKSIMPYAWDFPTAKEKYLVLESGTRTREVRLAEIGELPPLRLDKRSKDKPAPIVGLHVVADDDMQALVIVNYKAN
notes: Mcp1p of S. cerevisiae, Pro-X-Pro motif, residues 2-20; also called PXP-VABsc; source: E. coli BL21 (DE3), purified (Ni-NTA, Superdex 200)
stoichiometry N [3]: 2

B3: PxP(Spo71sc)-VABsc(1,869-2,545)-His6 (other, S. cerevisiae, UniProt Q03868 380-400, looked up)
chain: SHLPFINILPPWPTELTEEERKPYQLVNDTELDFDVWIQDKTTEDNKNEVVLLKANTSLPWEFEDWRSIREKLDIDKSKNILGVCVSGQNYKTIMNIDATTEGENLHVLSPPRNNVHNRIVCEARCDENNVKIITFRSTLVIENTTSTEIELLVDSKDPNKPSLKYAIKPHQSKSVPVEYAYDSDIRIRPASEDIYDWSQQTLSWKSLLSNQMSIFCSSKEDSNQRFHFEIGAKYDEREPLAKIFPHMKIVVSASMTIENLLPADINFSIFDKREEKRTDFLKTGESMEVHHISLDSFLLMSVQPLQDEASASKPSIVNTPHKSPLNPEDSLSLTLSGGQNLLLKLDYKNIDGTRSKVIRIYSPYIIMNSTDRELYIQSSLLNIAQSKILLENEKRYTIPKMFSFDKEDDKSNRARIRFKESEWSSKLSFDAIGQSFDASVRIKNKEQESNLGINISEGKGKYLLSKVIEIAPRYIISNTLDIPIEVCETGSMDVQQIESNITKPLYRMRNIVDKQLVLKFLGGDSNWSQPFFIKNVGVTYLKVLKNSRHKLLKIEILLDKATIFIRIKDGGDRWPFSIRNFSDHDFIFYQRDPRKVSDPYKDDQSNESSSRSFKPIFYRIPSKSIMPYAWDFPTAKEKYLVLESGTRTREVRLAEIGELPPLRLDKRSKDKPAPIVGLHVVADDDMQALVIVNYKAN
notes: Spo71p of S. cerevisiae, Pro-X-Pro motif, residues 380-400; also called PXP-VABsc; source: E. coli BL21 (DE3), purified (Ni-NTA, Superdex 200)
stoichiometry N [3]: 2
